Experimental data as given in paper PMC5209733, “U24 from Roseolovirus interacts strongly with Nedd4 WW Domains” (Scientific Reports, 2017).
Non-standard residues stand in square brackets, D forms with d. No end group written: not given here. pT = C[C@@H](OP(=O)(O)O)[C@H](N)C(=O)O

Experiments:
[1] = biological target: T1, rNedd4-WW3/4 domain (third WW domain of rat Nedd4, GST tag removed) (rat, UniProt Q62940 452-499); experiment: ITC; peptide titrated into the cleaved WW domain (40 to 150 uM) in the cell; 10 mM sodium phosphate, pH 7.4, 25 °C; MicroCal VP-ITC; bimolecular interaction model; three runs (further runs with 100 mM and 500 mM NaCl told in words only); settings: both partners purified
T1 construct: Nedd4 E3 ubiquitin ligase, rat, third WW domain (WW3/4, homologue of the fourth WW domain in human); Thrombin cleavage may leave vector residues at the N-terminus (surmised); source: E. coli BL21(DE3), purified (Glutathione Sepharose 4B, thrombin cleavage on the resin); 15N-labelled in M9 medium for NMR; not shown: GST, N-terminal, cleaved

[2] = biological target: T2, U24-6A protein (recombinant full length U24 from HHV-6A) (Human Herpes Virus type 6A (HHV-6A), UniProt Q69559 1-87); experiment: pull-down; GST-Nedd4 WW domain (1 to 2 nmole) immobilised on 20 uL Glutathione Sepharose 4B resin, incubated 1 hour at 4 °C with U24 protein in pull down buffer (20 mM KH2PO4, 75 mM NaCl, 0.5% Triton X-100, pH 7.4; 1 mM DTT for U24-7); SDS-PAGE, silver stain; settings: both partners purified
T2 construct: U24 protein of Human Herpes Virus type 6A (HHV-6A), full length
T2 sequence: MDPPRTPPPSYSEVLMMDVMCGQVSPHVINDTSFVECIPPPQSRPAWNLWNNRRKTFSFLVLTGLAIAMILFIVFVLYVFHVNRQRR

B1: pU24-6A peptide (15-mer, N-terminus of U24 from HHV-6A phosphorylated at Thr6) (peptide)
peptide: MDPPR[pT]PPPSYSEVL
notes: U24 protein of Human Herpes Virus type 6A (HHV-6A), 15-mer of the N-terminus with phospho-threonine at Thr6; source: purified peptide
In the case of B1, the Kd [1] is reported as 13.5 µM and the dH [1] is reported as -12.9 kcal/mol.

B2: U24-6A peptide (15-mer, N-terminus of U24 from HHV-6A) (peptide)
peptide: MDPPRTPPPSYSEVL
notes: U24 protein of Human Herpes Virus type 6A (HHV-6A), first 15 residues; source: purified peptide
B2 gave a Kd [1] of 43 µM and a dH [1] of -11 kcal/mol.

B3: GST-rNedd4-WW3/4 (third WW domain of rat Nedd4 fused to the C-terminus of GST) (domain or fragment)
chain: PVDSNDLGPLPPGWEERTHTDGRVFFINHNIKKTQWEDPRMQNVAITG
notes: Nedd4 E3 ubiquitin ligase, rat, third WW domain (WW3/4, homologue of the fourth WW domain in human); Plasmid was a gift from J. D. Forman-Kay; source: E. coli BL21(DE3), purified (Glutathione Sepharose 4B, eluted with glutathione); not shown: GST, N-terminal, kept
B3: binds [2].

B4: GST-hNedd4L-WW3* (third WW domain of human Nedd4-like protein fused to the C-terminus of GST) (domain or fragment)
chain: QSFLPPGWEMRIAPNGRPFFIDHNTKTTTWEDPRLKFPVHMRSK
notes: Nedd4-like protein (Nedd4L), human, cDNA clone KIAA0439, third WW domain (WW3*); Cloned into BamHI and XhoI sites of pGEX-4T2; source: E. coli BL21(DE3), purified (Glutathione Sepharose 4B, eluted with glutathione); not shown: GST, N-terminal, kept
B4: binds [2].
